Columns and labels:
[1] = Skin penetration on topical application of somatotropin composition; details: composition topically applied
Protocol: A drug delivery composition formulated with somatotropin was formulated in one trial with 85% phosphatidylcholine to which lipoic acid and ascorbyl palmitate were added.

[2] = Storage stability of insulin by RP-HPLC and HPCE (Example 1); assay type: physicochemical; details: stored at room temperature
Protocol: This mixture was then divided in half, half of which was stored at 4° C., and the other half stored at room temperature.

[3] = Storage stability of insulin by RP-HPLC and HPCE (Example 2); assay type: physicochemical

| Substance | skin penetration [1] | time at which denaturing started [2] | time stable (RP-HPLC and HPCE) ([3]; stored at 4° C.) | time at which denaturing started ([3]; stored at room temperature) |
| --- | --- | --- | --- | --- |
| Somatotropin: pituitary growth hormone, formulated with 85% phosphatidylcholine, lipoic acid and ascorbyl palmitate | appeared to penetrate the skin well | – | – | – |
| insulin standards: recombinant human insulin in 0.01 N HCl, 1 mg/ml (Example 1) or 5 mg/ml (Example 2) | – | ≤ 7 days | 22 weeks | ≤ 1 week |
